Experimental findings from US20160355602A1 (Astellas, published 2016) are described below.

Several values for one entry are separate records, joined by “and”; a condition that tells them apart may be missing. Equal entries are not always repeated.

The target of assay [1] is T1, human TLR2 endogenously expressed on cells (THP1-xBlue cells; normal human peripheral blood mononuclear cells) (human, UniProt O60603 21-784). Nature of the assay: cell-based or functional assay.
The target in assay [2] is T2, human TLR2 protein (R&D Systems, 2616-TR-050) (human, UniProt O60603 21-590, limits assumed).
T2 construct: Bought recombinant protein
T2 sequence (O60603 21-590 limits assumed): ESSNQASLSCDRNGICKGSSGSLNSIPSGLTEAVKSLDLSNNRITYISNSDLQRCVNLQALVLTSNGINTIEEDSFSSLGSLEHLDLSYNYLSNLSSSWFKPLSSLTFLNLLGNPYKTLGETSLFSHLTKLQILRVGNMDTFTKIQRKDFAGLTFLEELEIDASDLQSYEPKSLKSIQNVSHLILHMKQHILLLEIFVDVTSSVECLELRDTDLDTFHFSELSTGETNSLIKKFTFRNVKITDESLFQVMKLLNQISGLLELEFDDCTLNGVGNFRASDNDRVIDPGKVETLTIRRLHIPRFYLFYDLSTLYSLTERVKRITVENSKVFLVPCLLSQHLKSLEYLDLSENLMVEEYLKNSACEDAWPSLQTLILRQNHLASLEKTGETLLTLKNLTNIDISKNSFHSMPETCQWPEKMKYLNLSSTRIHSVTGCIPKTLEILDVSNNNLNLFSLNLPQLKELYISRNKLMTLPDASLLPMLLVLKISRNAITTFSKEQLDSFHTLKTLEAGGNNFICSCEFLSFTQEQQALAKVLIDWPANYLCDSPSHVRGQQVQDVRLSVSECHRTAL
In words: SPR (Biacore T200), human TLR2 protein captured by anti-His IgG on CM5 chip, antibody at 200 nM as analyte, bivalent analyte model. As for the experimental part:
To evaluate a binding activity of the fully human 31-5F5-2F3.m1 prepared in Example 4 for human TLR2, an SPR analysis was carried out.
In the SPR analysis, Biacore T200 (GE Healthcare Japan) was used to carry out analysis. An Anti-His IgG (enclosed in His Capture Kit) was immobilized on a sensor chip CM5 (GE Healthcare Japan, BR-1005-30) using a His Capture Kit (GE Healthcare Japan, 28-9950-56) and Amine Coupling Kit (GE Healthcare Japan, BR-1000-50). Flow path No. 1 is referred to as a reference, onto which the human TLR2 protein was not attached. Onto each of other flow paths (No. 2, No. 3, and No. 4), a human TLR2 protein (R&D Systems, 2616-TR-050) diluted to 0.66 μg/mL in HBS-EP+ buffer (GE Healthcare Japan, BR-1006-69) was added at a flow rate of 5 μL/minute for 2 minutes and then immobilized. Thereafter, a solution of fully human 31-5F5-2F3.m1 diluted to 200 nM in HBS-EP+buffer was added at a flow rate of 50 μL/minute for 2 minutes, and the fully human antibody-human TLR2 binding was measured. Next, HBS-EP+buffer was added at a flow rate of 50 μL/minute for 5 minutes and the dissociation of the fully human antibody and human TLR2 was measured. Bivalent analyte model and the Rmax were analyzed by Fit local to calculate the association rate constant (ka) and dissociation rate constant (kd), and the association-dissociation constant (KD) was calculated by dividing kd by ka.
A general note: In SPR one partner is held on a chip, and binding of the other changes the refractive index at the surface.

In assay [3] the target is human TLR4/MD2 endogenously expressed on normal human peripheral blood mononuclear cells (human, UniProt O00206 24-839; Q9Y6Y9 19-160). Nature of the assay: cell-based or functional assay.
Chain of human TLR4/MD2 endogenously expressed on normal human peripheral blood mononuclear cells (O00206 24-839, chain 1 of 2): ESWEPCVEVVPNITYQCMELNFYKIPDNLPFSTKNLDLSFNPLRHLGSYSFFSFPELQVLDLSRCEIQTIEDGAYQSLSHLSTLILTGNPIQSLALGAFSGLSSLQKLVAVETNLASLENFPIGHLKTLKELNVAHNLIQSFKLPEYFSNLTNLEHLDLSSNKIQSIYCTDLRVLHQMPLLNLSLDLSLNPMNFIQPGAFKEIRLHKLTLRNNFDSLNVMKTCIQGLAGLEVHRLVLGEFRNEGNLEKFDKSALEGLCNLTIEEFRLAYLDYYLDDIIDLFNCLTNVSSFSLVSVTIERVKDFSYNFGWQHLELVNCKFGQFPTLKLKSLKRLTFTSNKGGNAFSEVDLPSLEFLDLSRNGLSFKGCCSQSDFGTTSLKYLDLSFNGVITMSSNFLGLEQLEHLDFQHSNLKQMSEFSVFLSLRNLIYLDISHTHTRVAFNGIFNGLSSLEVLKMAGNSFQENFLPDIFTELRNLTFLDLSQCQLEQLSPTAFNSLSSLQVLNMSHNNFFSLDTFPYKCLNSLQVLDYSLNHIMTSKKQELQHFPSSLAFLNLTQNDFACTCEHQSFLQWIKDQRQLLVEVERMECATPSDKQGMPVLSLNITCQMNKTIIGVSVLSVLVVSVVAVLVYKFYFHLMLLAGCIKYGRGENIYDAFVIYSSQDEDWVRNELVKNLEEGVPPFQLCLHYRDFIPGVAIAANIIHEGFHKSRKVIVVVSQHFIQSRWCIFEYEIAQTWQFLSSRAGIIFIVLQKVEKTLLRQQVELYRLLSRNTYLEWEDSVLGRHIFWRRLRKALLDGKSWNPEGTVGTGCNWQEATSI
Chain of human TLR4/MD2 endogenously expressed on normal human peripheral blood mononuclear cells (Q9Y6Y9 19-160, chain 2 of 2): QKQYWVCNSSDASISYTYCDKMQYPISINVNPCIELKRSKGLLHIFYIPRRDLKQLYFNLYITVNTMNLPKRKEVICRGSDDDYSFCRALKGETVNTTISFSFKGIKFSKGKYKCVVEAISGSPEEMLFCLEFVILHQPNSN
For assay [4], the target named is T1, human TLR2 endogenously expressed on …. Nature of the assay: cell-based or functional assay. This is another data set of the same source.
Assay [5] addresses T3, human TLR4/MD2 protein (R&D Systems, 3146-TM/CF) (human, UniProt O00206 24-631; Q9Y6Y9 17-160, limits assumed).
T3 construct: Bought recombinant complex; also called human TLR4 and MD2 complex
Nature of the assay: ELISA, human TLR4/MD2 protein immobilized on plate, detection with anti-human IgG-HRP. As for the experimental part: (§1) In order to evaluate the binding activity of each of two bispecific antibodies prepared in Example 8 for human TLR2 and human TLR4, ELISA was carried out using a human TLR2 protein and a human TLR4/MD2 protein. 15 μL/well of a human TLR2 protein (R&D Systems, 2616-TR-050) diluted to a concentration of 10 μg/mL in PBS (Life Technologies, 10010-023) was added to a MaxiSorp 384-well plate Clear (Thermo Fisher Scientific Inc.), followed by immobilization at room temperature for 1 hour. Similarly, 15 μL/well of a human TLR4/MD2 protein (R&D Systems, 3146-TM/CF) was added at 10 μg/mL, followed by immobilization at room temperature for 1 hour. After 1 hour, the wells were washed three times with a washing solution (0.05% Tween-20-containing Tris-buffered saline (TBS)), and 100 μL/well of Blocking One (NACALAI TESQUE, INC., 03953-95) was added, followed by blocking at room temperature for 1 hour. The wells were washed again three times with a washing solution, 15 μL/well of two bispecific antibodies prepared in Example 8 was added to the well on which the human TLR2 protein was immobilized and the well on which the human TLR4/MD2 protein was immobilized. […] An absorbance at 450 nm was measured by using Safire2 (TECAN), and an EC50 value of each antibody for the human TLR2 protein and the human TLR4/MD2 protein was calculated.
In general terms: An ELISA detects its analyte on a solid surface through an enzyme-linked reagent.

In assay [6] the target is T2, human TLR2 protein (R&D Systems, …). In words: ELISA, human TLR2 protein immobilized on plate, detection with anti-human IgG-HRP. As for the experimental part: as §1

T1 sequence (O60603 21-784): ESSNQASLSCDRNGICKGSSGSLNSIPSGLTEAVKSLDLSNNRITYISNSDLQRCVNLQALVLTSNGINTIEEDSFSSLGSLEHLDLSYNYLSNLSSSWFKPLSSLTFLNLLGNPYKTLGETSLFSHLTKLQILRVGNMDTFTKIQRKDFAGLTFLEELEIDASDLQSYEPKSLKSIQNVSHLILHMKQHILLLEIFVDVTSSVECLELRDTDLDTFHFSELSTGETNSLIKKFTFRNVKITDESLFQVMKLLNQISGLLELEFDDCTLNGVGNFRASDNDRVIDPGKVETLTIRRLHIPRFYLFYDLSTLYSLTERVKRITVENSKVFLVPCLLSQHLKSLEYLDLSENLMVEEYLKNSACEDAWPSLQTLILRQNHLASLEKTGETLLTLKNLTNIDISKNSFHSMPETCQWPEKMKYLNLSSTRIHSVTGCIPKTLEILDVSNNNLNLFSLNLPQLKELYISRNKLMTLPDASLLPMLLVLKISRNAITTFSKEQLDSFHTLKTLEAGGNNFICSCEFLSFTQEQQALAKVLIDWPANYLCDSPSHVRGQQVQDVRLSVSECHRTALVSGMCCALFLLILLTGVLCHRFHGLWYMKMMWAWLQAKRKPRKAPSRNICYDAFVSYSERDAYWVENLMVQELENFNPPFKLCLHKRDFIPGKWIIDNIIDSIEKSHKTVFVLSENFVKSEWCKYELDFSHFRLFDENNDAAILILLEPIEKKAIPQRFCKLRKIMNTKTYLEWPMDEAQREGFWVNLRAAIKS
T3 sequence (O00206 24-631 limits assumed, chain 1 of 2): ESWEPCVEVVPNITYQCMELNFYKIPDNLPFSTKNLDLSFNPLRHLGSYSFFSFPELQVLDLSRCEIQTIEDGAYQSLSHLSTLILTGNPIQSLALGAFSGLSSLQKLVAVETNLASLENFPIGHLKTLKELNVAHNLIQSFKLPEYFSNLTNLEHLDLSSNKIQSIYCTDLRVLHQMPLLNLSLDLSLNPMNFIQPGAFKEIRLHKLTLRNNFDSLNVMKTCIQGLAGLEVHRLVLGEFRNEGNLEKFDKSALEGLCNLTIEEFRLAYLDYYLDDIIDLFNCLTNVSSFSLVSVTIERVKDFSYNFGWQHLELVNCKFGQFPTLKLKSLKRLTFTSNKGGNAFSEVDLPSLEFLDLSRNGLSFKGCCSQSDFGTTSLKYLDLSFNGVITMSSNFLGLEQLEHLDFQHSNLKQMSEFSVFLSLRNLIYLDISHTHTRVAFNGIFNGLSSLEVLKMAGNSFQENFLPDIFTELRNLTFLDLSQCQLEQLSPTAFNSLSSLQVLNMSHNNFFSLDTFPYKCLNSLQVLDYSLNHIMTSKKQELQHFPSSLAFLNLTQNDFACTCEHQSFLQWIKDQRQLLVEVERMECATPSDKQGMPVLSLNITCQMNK
T3 sequence (Q9Y6Y9 17-160 limits assumed, chain 2 of 2): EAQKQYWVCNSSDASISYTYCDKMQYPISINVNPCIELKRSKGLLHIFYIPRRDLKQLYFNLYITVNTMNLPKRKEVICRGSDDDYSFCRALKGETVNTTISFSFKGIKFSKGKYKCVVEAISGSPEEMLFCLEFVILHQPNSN

B1: fully human 31-5F5-2F3.m1 (antibody, human IgG1, kappa, V domains shown)
VH: EVQLVESGGGLVQPGGSLRLSCAASGFTFSNYAMSWVRQAPGKGLEWVAAIYGRGGYTNYADSVKGRFTISRDNSKNTLYLQMNSLRAEDTAVYYCAKEGGGYRDYFDYWGQGTLVTVSS
VL: DVQMTQSPSSLSASVGDRVTITCRSSQSLVFSDGNTYLNWFQQKPGKAPKRLIYKVSNRDSGVPSRFSGSGSGTDFTLTISSLQPEDFATYYCMQGAHWPLTFGQGTKVEIKR
notes: Human Igγ1 / human kappa constant regions; also called fully human anti-human TLR2 antibody; fully human antibody of 31-5F5-2F3.m1
Regarding B1, the “IC50 value against Pam2CSK4-induced AP production in THP1-xBlue cells” value in assay [1] is 97.7 pM and 130 pM. Further, the Kd in assay [2] is 88.5 pM.

B2: fully human ICU-1-Igγ1-LAsh (bispecific antibody, human IgG1, kappa, L234A L235A)
heavy: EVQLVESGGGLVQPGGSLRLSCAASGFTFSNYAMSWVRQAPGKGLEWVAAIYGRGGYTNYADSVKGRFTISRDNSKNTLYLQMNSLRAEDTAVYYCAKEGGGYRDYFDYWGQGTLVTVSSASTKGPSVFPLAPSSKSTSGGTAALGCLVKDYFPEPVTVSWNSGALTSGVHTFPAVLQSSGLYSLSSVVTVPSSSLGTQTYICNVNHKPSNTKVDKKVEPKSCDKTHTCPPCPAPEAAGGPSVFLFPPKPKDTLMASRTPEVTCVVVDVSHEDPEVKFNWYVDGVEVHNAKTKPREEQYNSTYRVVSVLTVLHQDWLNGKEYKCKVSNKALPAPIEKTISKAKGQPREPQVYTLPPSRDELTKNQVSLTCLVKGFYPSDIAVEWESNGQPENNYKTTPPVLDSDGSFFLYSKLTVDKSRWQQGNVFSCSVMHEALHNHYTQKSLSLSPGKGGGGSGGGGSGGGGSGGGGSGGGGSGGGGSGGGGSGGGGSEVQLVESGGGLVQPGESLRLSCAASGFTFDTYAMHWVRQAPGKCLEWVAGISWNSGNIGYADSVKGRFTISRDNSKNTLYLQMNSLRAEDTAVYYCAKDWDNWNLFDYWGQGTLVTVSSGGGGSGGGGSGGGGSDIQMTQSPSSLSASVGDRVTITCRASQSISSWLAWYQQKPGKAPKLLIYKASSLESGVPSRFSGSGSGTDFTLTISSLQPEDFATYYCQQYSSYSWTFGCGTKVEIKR
light: DVQMTQSPSSLSASVGDRVTITCRSSQSLVFSDGNTYLNWFQQKPGKAPKRLIYKVSNRDSGVPSRFSGSGSGTDFTLTISSLQPEDFATYYCMQGAHWPLTFGQGTKVEIKRTVAAPSVFIFPPSDEQLKSGTASVVCLLNNFYPREAKVQWKVDNALQSGNSQESVTEQDSKDSTYSLSSTLTLSKADYEKHKVYACEVTHQGLSSPVTKSFNRGEC
notes: As fully human ICU-1-Igγ1, but with L234A, L235A and I253A (EU index) in the human Igγ1 constant region; also called IgG(TLR2)-scFv(TLR4) bispecific antibody with L234A, L235A and I253A
As usually defined, the EC50 is the concentration needed to bring the measured effect to its halfway point. Low readings indicate higher potency in that assay, high ones lower potency in that assay. For B2, the “IC50 value, killed Pseudomonas aeruginosa-induced TNFα production on normal human peripheral blood mononuclear cells” value in assay [3] and in assay [4] was 17.2 pM in each case. Further, the EC50 in assay [5] turned out to be 522 pM; in assay [6] it was 210 pM.

B3: fully human ICU-1-Igγ1 (bispecific antibody, human IgG1, kappa)
heavy: not shown
light: DVQMTQSPSSLSASVGDRVTITCRSSQSLVFSDGNTYLNWFQQKPGKAPKRLIYKVSNRDSGVPSRFSGSGSGTDFTLTISSLQPEDFATYYCMQGAHWPLTFGQGTKVEIKRTVAAPSVFIFPPSDEQLKSGTASVVCLLNNFYPREAKVQWKVDNALQSGNSQESVTEQDSKDSTYSLSSTLTLSKADYEKHKVYACEVTHQGLSSPVTKSFNRGEC
notes: Tetravalent IgG-scFv: an anti-TLR4 scFv is joined by a GS linker to the C terminal of each heavy chain of the anti-TLR2 IgG1; also called IgG(TLR2)-scFv(TLR4) bispecific antibody
With B3, the “IC50 value, killed Pseudomonas aeruginosa-induced TNFα production on normal human peripheral blood mononuclear cells” value in assay [3] and in assay [4] was 40 pM in each case. The EC50 in assay [5] came out at 494 pM; in assay [6] it was 150 pM.
